One data set deals with T1, BUD32;CGI121 (Arabidopsis thaliana;Arabidopsis …, UniProt Q94K14;Q6NMZ4 1-226;1-172, |).
T1 sequence 1: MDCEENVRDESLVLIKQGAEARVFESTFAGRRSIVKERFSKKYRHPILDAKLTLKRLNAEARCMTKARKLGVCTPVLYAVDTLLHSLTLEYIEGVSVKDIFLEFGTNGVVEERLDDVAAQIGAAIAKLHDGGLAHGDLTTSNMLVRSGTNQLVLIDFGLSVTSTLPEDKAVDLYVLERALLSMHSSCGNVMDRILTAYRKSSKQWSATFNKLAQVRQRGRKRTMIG
T1 sequence 2: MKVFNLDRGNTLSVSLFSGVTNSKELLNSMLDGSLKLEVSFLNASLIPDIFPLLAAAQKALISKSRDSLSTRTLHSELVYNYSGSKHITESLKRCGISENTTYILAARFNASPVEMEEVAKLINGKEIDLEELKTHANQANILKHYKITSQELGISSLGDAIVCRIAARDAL
Kind of data set: MST; MST: 20 mM PBS pH 7.5, 300 mM NaCl, 0.05% Tween 20, 25 C, 50 nM RNA; EMSA: 20 mM Tris-HCl pH 7.5, 300 mM NaCl, 5 mM b-mercaptoethanol, 20% glycerol, agarose gel in Tris-glycine pH 8.0 (8.5 for FAM-RNA), 4 C. The note with it: protein: recombinant;recombinant; tags: none (6His on partner CGI121);6His (C-term); copies: 1;1; label: 5' 6-FAM; tRNA cloverleaf. (A gel shift assay detects complexes by their altered migration in electrophoresis.)

Data set [1] deals with T2, KAE1;BUD32 L165K;CGI121;PCC1 (Arabidopsis thaliana;Arabidopsis …, UniProt O49653;Q94K14;Q6NMZ4;Q8GWD7 1-353;1-226;1-172;1-96, |L165K||).
T2 sequence 1: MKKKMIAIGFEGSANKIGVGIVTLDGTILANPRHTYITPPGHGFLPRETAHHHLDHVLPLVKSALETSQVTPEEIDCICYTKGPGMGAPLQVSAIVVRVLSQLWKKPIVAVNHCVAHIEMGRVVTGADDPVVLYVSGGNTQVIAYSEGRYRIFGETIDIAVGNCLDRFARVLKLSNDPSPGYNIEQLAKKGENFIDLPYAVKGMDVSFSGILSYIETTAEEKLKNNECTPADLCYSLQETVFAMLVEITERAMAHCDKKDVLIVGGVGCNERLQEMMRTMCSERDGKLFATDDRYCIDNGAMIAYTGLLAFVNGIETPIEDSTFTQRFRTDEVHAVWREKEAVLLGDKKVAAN
T2 sequence 2: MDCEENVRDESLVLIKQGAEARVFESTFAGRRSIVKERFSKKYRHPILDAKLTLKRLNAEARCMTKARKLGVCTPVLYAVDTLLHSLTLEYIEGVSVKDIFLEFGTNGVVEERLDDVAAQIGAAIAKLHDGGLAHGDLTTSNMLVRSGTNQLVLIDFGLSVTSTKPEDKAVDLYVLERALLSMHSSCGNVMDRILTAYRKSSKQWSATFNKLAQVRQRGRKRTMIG
T2 sequence 3: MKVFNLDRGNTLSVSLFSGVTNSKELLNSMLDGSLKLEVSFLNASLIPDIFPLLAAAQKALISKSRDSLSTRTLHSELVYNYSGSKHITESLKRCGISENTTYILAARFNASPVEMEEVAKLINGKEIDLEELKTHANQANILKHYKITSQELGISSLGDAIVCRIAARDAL
T2 sequence 4: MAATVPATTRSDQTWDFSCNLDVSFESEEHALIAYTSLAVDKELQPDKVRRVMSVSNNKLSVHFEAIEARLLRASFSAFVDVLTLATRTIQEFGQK
Kind of data set: EMSA; MST: 20 mM PBS pH 7.5, 300 mM NaCl, 0.05% Tween 20, 25 C, 50 nM RNA; EMSA: 20 mM Tris-HCl pH 7.5, 300 mM NaCl, 5 mM b-mercaptoethanol, 20% glycerol, agarose gel in Tris-glycine pH 8.0 (8.5 for FAM-RNA), 4 C. Conditions: protein: recombinant;recombinant;recombinant;recombinant; tags: none (6His on partner PCC1);;6His (C-term);6His (C-term); chain copies: 2;2;2;2; label: 5' 6-FAM; tRNA cloverleaf.

A further data set has as its target T3, KAE1;PCC1 (Arabidopsis thaliana;Arabidopsis …, UniProt O49653;Q8GWD7 1-353;1-96, |).
T3 sequence 1: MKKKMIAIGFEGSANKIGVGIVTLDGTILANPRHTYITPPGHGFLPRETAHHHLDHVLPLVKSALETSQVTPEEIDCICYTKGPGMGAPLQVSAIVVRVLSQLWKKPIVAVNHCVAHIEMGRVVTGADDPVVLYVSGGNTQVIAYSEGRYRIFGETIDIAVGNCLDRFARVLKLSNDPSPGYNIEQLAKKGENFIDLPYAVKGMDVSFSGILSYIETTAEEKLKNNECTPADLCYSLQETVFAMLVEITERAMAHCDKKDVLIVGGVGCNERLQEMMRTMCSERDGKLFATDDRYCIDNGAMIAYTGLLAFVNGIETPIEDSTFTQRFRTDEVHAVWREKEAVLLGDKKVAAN
T3 sequence 2: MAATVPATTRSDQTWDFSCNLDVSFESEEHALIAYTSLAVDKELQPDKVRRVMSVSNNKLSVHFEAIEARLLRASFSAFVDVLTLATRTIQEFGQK
The data set is described as above. Conditions: protein: recombinant;recombinant; tags: none (6His on partner PCC1);6His (C-term); chain copies: 2;2; label: 5' 6-FAM; tRNA cloverleaf.

The target of data set [2] is T4, KAE1 mutant-2;BUD32;CGI121;PCC1 (Arabidopsis thaliana;Arabidopsis …, UniProt O49653;Q94K14;Q6NMZ4;Q8GWD7 1-353;1-226;1-172;1-96, G43E;F44R;L45K;P46R;R47D;E48K|||).
T4 sequence 1: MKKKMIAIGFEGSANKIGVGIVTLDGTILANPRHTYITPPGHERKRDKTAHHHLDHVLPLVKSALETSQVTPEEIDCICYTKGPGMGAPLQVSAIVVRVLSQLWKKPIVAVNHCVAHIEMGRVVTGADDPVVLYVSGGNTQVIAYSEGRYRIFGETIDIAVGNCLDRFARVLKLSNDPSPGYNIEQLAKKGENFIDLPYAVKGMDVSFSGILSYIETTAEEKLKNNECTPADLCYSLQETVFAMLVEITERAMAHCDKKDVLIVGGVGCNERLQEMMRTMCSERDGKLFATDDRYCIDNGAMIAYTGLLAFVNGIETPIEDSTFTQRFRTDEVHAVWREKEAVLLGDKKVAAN
T4 sequence 2: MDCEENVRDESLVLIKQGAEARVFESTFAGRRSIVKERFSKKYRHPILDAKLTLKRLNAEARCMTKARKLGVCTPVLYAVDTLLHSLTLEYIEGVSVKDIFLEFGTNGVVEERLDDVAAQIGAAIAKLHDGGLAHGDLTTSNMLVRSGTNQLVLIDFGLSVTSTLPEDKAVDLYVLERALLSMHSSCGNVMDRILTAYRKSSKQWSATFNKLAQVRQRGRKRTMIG
T4 sequence 3: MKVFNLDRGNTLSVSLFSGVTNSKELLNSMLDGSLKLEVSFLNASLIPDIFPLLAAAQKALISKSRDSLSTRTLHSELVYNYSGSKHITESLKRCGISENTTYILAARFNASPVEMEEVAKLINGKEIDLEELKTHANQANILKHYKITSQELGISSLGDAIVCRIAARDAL
T4 sequence 4: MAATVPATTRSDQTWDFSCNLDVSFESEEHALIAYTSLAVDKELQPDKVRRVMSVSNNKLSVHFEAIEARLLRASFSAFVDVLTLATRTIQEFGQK
Description: EMSA; conflicts with MST; MST: 20 mM PBS pH 7.5, 300 mM NaCl, 0.05% Tween 20, 25 C, 50 nM RNA; EMSA: 20 mM Tris-HCl pH 7.5, 300 mM NaCl, 5 mM b-mercaptoethanol, 20% glycerol, agarose gel in Tris-glycine pH 8.0 (8.5 for FAM-RNA), 4 C. Conditions: protein: recombinant;recombinant;recombinant;recombinant; tags: ;none (6His on partner CGI121);6His (C-term);6His (C-term); chain copies: 2;2;2;2; label: 5' 6-FAM; tRNA cloverleaf.

B1: 5'-6FAM-tRNAArgCCU (structured_RNA)
RNA: GCGCCUGUAGCUCAGUGGAUAGAGCGUCUGUUUCCUAAGCAGAAGGUCGUAGGUUCGACCCCUACCUGGCGCGCCA
As usually defined, the Kd is the equilibrium constant for the complex coming apart. As for B1, the Kd in the data set with BUD32;CGI121 worked out at 61.6 ± 15 µM. The binding result was “binds” in data set [1], “no binding” with KAE1;PCC1 and “binds” in data set [2].
